Broadly, the stoichiometry N is a count of units in the complex or per binding partner.

The text below walks through data of article PMC4505599.

This assay has as its target Mos1 transposase (T216A mutant) (Drosophila mauritiana). The assay can be described thus: crystal structure; Mos1 IRL paired-end complex: full-length transposase mixed with duplex IRL DNA at 1:1.5 protein:DNA in 25 mM Tris pH 7.5, 250 mM KCl, 1 mM DTT; crystals grown at 17 °C; 3.1 Å.

“Mos1 transposase (T216A mutant) (enzyme)”: the stoichiometry N came out at 2.
